Source: PMC4551902, “Aquaporins Mediate Silicon Transport in Humans” (PLoS ONE, 2015)

What was measured:
[1] = target: T1, lsi1 (Oryza sativa, UniProt Q6Z2T3); assay: 68Ge influx into oocytes, liquid scintillation counting; format: cell-based; details: 2 mM H4GeO4 with 68Ge tracer, B1 medium, pH 7.4, 90 min; labelled compound
T1 construct: gene NIP2-1; expressed in Xenopus laevis oocytes
T1 sequence (Q6Z2T3 1-298): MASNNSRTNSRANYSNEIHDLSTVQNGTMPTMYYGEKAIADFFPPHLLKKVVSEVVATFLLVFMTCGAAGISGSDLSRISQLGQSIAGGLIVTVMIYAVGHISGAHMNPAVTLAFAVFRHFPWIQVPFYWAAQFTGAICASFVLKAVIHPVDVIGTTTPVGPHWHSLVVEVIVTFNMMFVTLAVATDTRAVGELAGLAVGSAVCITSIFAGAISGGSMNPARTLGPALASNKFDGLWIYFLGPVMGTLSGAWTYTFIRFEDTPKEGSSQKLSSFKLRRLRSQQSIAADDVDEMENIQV

[2] = target: T2, AQP9 (Homo sapiens, UniProt O43315); assay: Si influx and osmotic water transport in oocytes; format: cell-based; details: 0.1 mM phloretin; Si influx: B2a hypoosmolar medium, 2 mM H4SiO4, 30 min; water transport: ~10 mM sucrose, 20 s
T2 construct: full-length human cDNA in Pol1 vector, untagged, expressed in Xenopus laevis oocytes
T2 sequence (O43315 1-295): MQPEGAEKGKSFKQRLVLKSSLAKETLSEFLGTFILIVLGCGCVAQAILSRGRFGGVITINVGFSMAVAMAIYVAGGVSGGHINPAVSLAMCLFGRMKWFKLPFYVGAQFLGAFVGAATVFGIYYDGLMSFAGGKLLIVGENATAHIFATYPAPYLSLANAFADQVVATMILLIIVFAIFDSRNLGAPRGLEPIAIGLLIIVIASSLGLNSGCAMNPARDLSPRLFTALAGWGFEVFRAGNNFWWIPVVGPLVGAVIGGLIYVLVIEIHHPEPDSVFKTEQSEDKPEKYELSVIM

[3] = substrate: O[Si](O)(O)O; assay: cells, lysate or membranes; details: B1 medium, 4-parameter logistic fit

Molecule: [OH][Ge]([OH])([OH])[OH] [H4GeO4]
- 68Ge influx into oocytes, liquid scintillation counting [1]: significantly different relative to background, between channels (for a given substrate)

Molecule: O=C(CCc1ccc(O)cc1)c1c(O)cc(O)cc1O [phloretin]
- effect on Si influx and water transport at 0.1 mM [2]: Si transport by AQP9 is seen to be stimulated by the water transport inhibitor phloretin

B1: AQP9 (Homo sapiens) (protein)
chain: MQPEGAEKGKSFKQRLVLKSSLAKETLSEFLGTFILIVLGCGCVAQAILSRGRFGGVITINVGFSMAVAMAIYVAGGVSGGHINPAVSLAMCLFGRMKWFKLPFYVGAQFLGAFVGAATVFGIYYDGLMSFAGGKLLIVGENATAHIFATYPAPYLSLANAFADQVVATMILLIIVFAIFDSRNLGAPRGLEPIAIGLLIIVIASSLGLNSGCAMNPARDLSPRLFTALAGWGFEVFRAGNNFWWIPVVGPLVGAVIGGLIYVLVIEIHHPEPDSVFKTEQSEDKPEKYELSVIM
- K0.5 ([3]; pH 7.4, 0-2 mM H4SiO4, 30 min): 117 µM

B2: AQP10 (Homo sapiens) (protein)
chain: MVFTQAPAEIMGHLRIRSLLARQCLAEFLGVFVLMLLTQGAVAQAVTSGETKGNFFTMFLAGSLAVTIAIYVGGNVSGAHLNPAFSLAMCIVGRLPWVKLPIYILVQLLSAFCASGATYVLYHDALQNYTGGNLTVTGPKETASIFATYPAPYLSLNNGFLDQVLGTGMLIVGLLAILDRRNKGVPAGLEPVVVGMLILALGLSMGANCGIPLNPARDLGPRLFTYVAGWGPEVFSAGNGWWWVPVVAPLVGATVGTATYQLLVALHHPEGPEPAQDLVSAQHKASELETPASAQMLECKL
- K0.5 ([3]; pH 7.4, 0-2 mM H4SiO4, 60 min): 470 µM

B3: AQP7 (Homo sapiens) (protein)
chain: MVQASGHRRSTRGSKMVSWSVIAKIQEILQRKMVREFLAEFMSTYVMMVFGLGSVAHMVLNKKYGSYLGVNLGFGFGVTMGVHVAGRISGAHMNAAVTFANCALGRVPWRKFPVYVLGQFLGSFLAAATIYSLFYTAILHFSGGQLMVTGPVATAGIFATYLPDHMTLWRGFLNEAWLTGMLQLCLFAITDQENNPALPGTEALVIGILVVIIGVSLGMNTGYAINPSRDLPPRIFTFIAGWGKQVFSNGENWWWVPVVAPLLGAYLGGIIYLVFIGSTIPREPLKLEDSVAYEDHGITVLPKMGSHEPTISPLTPVSVSPANRSSVHPAPPLHESMALEHF
- K0.5 ([3]; pH 7.4, 0-2 mM H4SiO4 (value above tested range), 90 min): 2300 µM
